Results from patent US20260275312, “CRISPR NUCLEASE POLYPEPTIDES AND GENE EDITING SYSTEMS COMPRISING SUCH” (ARBOR BIOTECHNOLOGIES, INC., published 2026).
Residue numbers refer to the chain shown, from its start.

What was measured:
Nuclease H L323R = target: T1, Nuclease H L323R (synthetic construct, L323R); test: cell_activity; HEK293T; PAM AAC; conditions: tags: N-term SV40 NLS, XTEN linker + C-term nucleoplasmin NLS
T1 chain: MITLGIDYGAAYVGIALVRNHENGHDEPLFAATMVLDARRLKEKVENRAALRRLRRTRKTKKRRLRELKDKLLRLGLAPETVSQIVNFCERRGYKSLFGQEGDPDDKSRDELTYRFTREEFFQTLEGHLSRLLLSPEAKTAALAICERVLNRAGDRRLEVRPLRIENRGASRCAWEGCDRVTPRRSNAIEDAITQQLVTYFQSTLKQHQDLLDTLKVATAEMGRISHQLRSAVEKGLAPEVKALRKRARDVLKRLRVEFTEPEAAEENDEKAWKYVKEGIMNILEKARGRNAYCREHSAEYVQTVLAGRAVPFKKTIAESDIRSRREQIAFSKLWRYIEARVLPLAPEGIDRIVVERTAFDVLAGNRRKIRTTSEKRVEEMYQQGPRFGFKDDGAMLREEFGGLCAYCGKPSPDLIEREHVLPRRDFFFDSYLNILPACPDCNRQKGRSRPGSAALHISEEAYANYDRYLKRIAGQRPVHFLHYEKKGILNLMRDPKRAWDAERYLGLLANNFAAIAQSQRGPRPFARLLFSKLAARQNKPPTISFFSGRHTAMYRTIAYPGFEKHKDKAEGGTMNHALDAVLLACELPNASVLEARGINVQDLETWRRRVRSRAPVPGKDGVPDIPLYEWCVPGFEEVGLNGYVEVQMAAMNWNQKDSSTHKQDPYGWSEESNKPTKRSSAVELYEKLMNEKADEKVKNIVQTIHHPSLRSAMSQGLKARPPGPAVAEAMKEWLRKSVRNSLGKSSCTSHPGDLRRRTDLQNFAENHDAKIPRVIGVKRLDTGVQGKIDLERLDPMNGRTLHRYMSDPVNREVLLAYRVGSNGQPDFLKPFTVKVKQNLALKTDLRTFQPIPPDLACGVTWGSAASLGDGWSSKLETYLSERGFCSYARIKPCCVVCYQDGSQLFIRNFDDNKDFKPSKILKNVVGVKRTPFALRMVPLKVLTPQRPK
Description: (§1) HEK293T cells were transfected with plasmids expressing the Nuclease H polypeptides and the gRNAs provided herein following the methods provided in Example 1 above. Gene editing efficiencies were determined by NGS following the methods also provided in Example 1. The NGS results were analyzed also following the methods provided in Example 1 above.
(§2) Indel ratios, referring to the percentage of NGS reads comprising indels, were calculated for the reference and for each variant. The indel ratios used for fold change calculations were the average of two technical replicates. To then calculate fold change in indel ratios, the indel ratio for each variant was divided by the indel ratio for the reference. […] Numbering is relative to the reference nuclease of SEQ ID NO: 64 (i.e., without an NLS).

Nuclease H D912R = target: T2, Nuclease H D912R (synthetic construct, D912R); test: cell_activity; HEK293T; PAM AAC; conditions: tags: N-term SV40 NLS, XTEN linker + C-term nucleoplasmin NLS
T2 chain: T1 chain with R323L, D912R
Description: as §1, §2

B1: H AAVS1-T5 RNA guide ; AAVS1-T5 target (H) (ssRNA ; dsDNA)
RNA: GGCUAUAAUCCAUGCUGACCGUUUCAAUCAACCUGAUCUCUCUGCUUGCGCUGCAGGCUUCAUAAGAUCAGUAGGUUGAAAAGAGCAUCCGUCCGACAUGCACUCCGGGAUGGGGCAGUCCCGGCUCUUGCGGUUCCCGAUGCAGUUAUGUGUCCGCGGAACACGGUGUCGGACACGUCGCAAGACAGGAUGUGAGCCCAUUAUCCACAUUAGGAUCAAUGUACGCAUGAGCAGUCCGCAAUGCCGGGGACGCU
DNA 1: GGCTATAATCCATGCTGACC
DNA 2: GGTCAGCATGGATTATAGCC
fold change in indel ratio vs reference (Nuclease H L323R): 5.91 fold indel vs reference | fold change in indel ratio vs reference (Nuclease H D912R): 4.21 fold indel vs reference
